# Measurements reported in the supplement of paper PMC10567573.
# B1: PI4K2A (parent)
# chain: FVKDPQGRIIAVFKPKNEEPYGHL
# B2: CCDC6 (parent)
# chain: TLFKKIQALQKEKETLAVNYEKEE
# Variants of: B1
# Assay: protein stability index of a GFP-peptide fusion (GPS, HEK-293T) (PSI 1-6); higher = more stable
# Conditions: c terminus: a fixed tail appended
# 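Also: lentivirally expressed fusions sorted by FACS into six bins by GFP to DsRed ratio, PSI derived from sequencing read proportions per bin multiplied by bin number.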
row,Variant,protein stability index
1,CVKDPQGRIIAVFKPKNEEPYGHL,2.77
2,KVKDPQGRIIAVFKPKNEEPYGHL,2.8
3,GVKDPQGRIIAVFKPKNEEPYGHL,3.09
4,EVKDPQGRIIAVFKPKNEEPYGHL,3.71
5,WVKDPQGRIIAVFKPKNEEPYGHL,1.89
6,IVKDPQGRIIAVFKPKNEEPYGHL,2.18
7,QVKDPQGRIIAVFKPKNEEPYGHL,3.69
8,DVKDPQGRIIAVFKPKNEEPYGHL,3.69
9,AVKDPQGRIIAVFKPKNEEPYGHL,2.63
10,HVKDPQGRIIAVFKPKNEEPYGHL,2.44
11,SVKDPQGRIIAVFKPKNEEPYGHL,2.76
12,TVKDPQGRIIAVFKPKNEEPYGHL,3.36
13,NVKDPQGRIIAVFKPKNEEPYGHL,3.21
14,PVKDPQGRIIAVFKPKNEEPYGHL,4.09
15,VVKDPQGRIIAVFKPKNEEPYGHL,2.84
16,LVKDPQGRIIAVFKPKNEEPYGHL,2.25
17,MVKDPQGRIIAVFKPKNEEPYGHL,2.76

row,Variant,protein stability index
1,FNKDPQGRIIAVFKPKNEEPYGHL,3.04
2,FPKDPQGRIIAVFKPKNEEPYGHL,2.13
3,FTKDPQGRIIAVFKPKNEEPYGHL,1.94
4,FIKDPQGRIIAVFKPKNEEPYGHL,2.01
5,FRKDPQGRIIAVFKPKNEEPYGHL,2.88
6,FMKDPQGRIIAVFKPKNEEPYGHL,2.42
7,FEKDPQGRIIAVFKPKNEEPYGHL,3.33
8,FCKDPQGRIIAVFKPKNEEPYGHL,1.33
9,FKKDPQGRIIAVFKPKNEEPYGHL,2.04
10,FWKDPQGRIIAVFKPKNEEPYGHL,1.71
11,FLKDPQGRIIAVFKPKNEEPYGHL,2.45
12,FAKDPQGRIIAVFKPKNEEPYGHL,2.07
13,FDKDPQGRIIAVFKPKNEEPYGHL,3.36
14,FSKDPQGRIIAVFKPKNEEPYGHL,2.44
15,FFKDPQGRIIAVFKPKNEEPYGHL,2.17
16,FQKDPQGRIIAVFKPKNEEPYGHL,1.99
17,FGKDPQGRIIAVFKPKNEEPYGHL,2.09

# Variants of: B2
# Assay: as above
# Conditions: c terminus: a fixed tail appended
row,Variant,protein stability index
1,TLFKKIQALQKEKETLAVNKEKEE,3.68
2,TLFKKIQALQKEKETLAVNREKEE,3.53
3,TLFKKIQALQKEKETLAVNMEKEE,2.45
4,TLFKKIQALQKEKETLAVNQEKEE,4.34
5,TLFKKIQALQKEKETLAVNNEKEE,3.57
6,TLFKKIQALQKEKETLAVNEEKEE,4.32
7,TLFKKIQALQKEKETLAVNCEKEE,3.32
8,TLFKKIQALQKEKETLAVNHEKEE,3.62
9,TLFKKIQALQKEKETLAVNGEKEE,3.71
10,TLFKKIQALQKEKETLAVNWEKEE,3.26
11,TLFKKIQALQKEKETLAVNSEKEE,3.84
12,TLFKKIQALQKEKETLAVNPEKEE,3.21
13,TLFKKIQALQKEKETLAVNLEKEE,3.45
14,TLFKKIQALQKEKETLAVNFEKEE,3.06
15,TLFKKIQALQKEKETLAVNAEKEE,3.54
16,TLFKKIQALQKEKETLAVNIEKEE,2.96
17,TLFKKIQALQKEKETLAVNDEKEE,4.09
18,TLFKKIQALQKEKETLAVNVEKEE,3.47
19,TLFKKIQALQKEKETLAVNTEKEE,3.62
20,TLFKKIQALQKEKETLAVNYGKEE,3.01
21,TLFKKIQALQKEKETLAVNYKKEE,2.58
22,TLFKKIQALQKEKETLAVNYVKEE,2.52
23,TLFKKIQALQKEKETLAVNYFKEE,1.62
24,TLFKKIQALQKEKETLAVNYHKEE,2.84
25,TLFKKIQALQKEKETLAVNYLKEE,2.28
26,TLFKKIQALQKEKETLAVNYAKEE,2.26

row,Variant,protein stability index
1,TLFKKIQALQKEKETLAVNYSKEE,3.06
2,TLFKKIQALQKEKETLAVNYTKEE,2.84
3,TLFKKIQALQKEKETLAVNYRKEE,2.36
4,TLFKKIQALQKEKETLAVNYNKEE,2.92
5,TLFKKIQALQKEKETLAVNYWKEE,1.92
6,TLFKKIQALQKEKETLAVNYPKEE,2.72
7,TLFKKIQALQKEKETLAVNYQKEE,3.1
8,TLFKKIQALQKEKETLAVNYCKEE,2.53
9,TLFKKIQALQKEKETLAVNYMKEE,2.11
10,TLFKKIQALQKEKETLAVNYDKEE,3.2
11,TLFKKIQALQKEKETLAVNYYKEE,1.78
12,TLFKKIQALQKEKETLAVNYIKEE,1.97
13,TLFKKIQALQKEKETLAVNYEFEE,2.57
14,TLFKKIQALQKEKETLAVNYEAEE,3.27
15,TLFKKIQALQKEKETLAVNYESEE,3.29
16,TLFKKIQALQKEKETLAVNYEMEE,3.08
17,TLFKKIQALQKEKETLAVNYEGEE,3.39
18,TLFKKIQALQKEKETLAVNYEHEE,3.15
19,TLFKKIQALQKEKETLAVNYEEEE,3.72
20,TLFKKIQALQKEKETLAVNYEREE,2.94
21,TLFKKIQALQKEKETLAVNYEYEE,2.64
22,TLFKKIQALQKEKETLAVNYEPEE,3.5
23,TLFKKIQALQKEKETLAVNYENEE,3.12
24,TLFKKIQALQKEKETLAVNYETEE,2.68
25,TLFKKIQALQKEKETLAVNYEIEE,2.74
26,TLFKKIQALQKEKETLAVNYEWEE,2.48

row,Variant,protein stability index
1,TLFKKIQALQKEKETLAVNYELEE,2.89
2,TLFKKIQALQKEKETLAVNYECEE,3.46
3,TLFKKIQALQKEKETLAVNYEVEE,2.94
4,TLFKKIQALQKEKETLAVNYEDEE,3.88
5,TLFKKIQALQKEKETLAVNYEQEE,3.3
6,TLFKKIQALQKEKETLMVNYEKEE,2.75
7,TLFKKIQALQKEKETLTVNYEKEE,3.18
8,TLFKKIQALQKEKETLSVNYEKEE,2.71
9,TLFKKIQALQKEKETLPVNYEKEE,2.84
10,TLFKKIQALQKEKETLHVNYEKEE,2.95
11,TLFKKIQALQKEKETLDVNYEKEE,3.74
12,TLFKKIQALQKEKETLGVNYEKEE,3.1
13,TLFKKIQALQKEKETLNVNYEKEE,2.65
14,TLFKKIQALQKEKETLVVNYEKEE,2.89
15,TLFKKIQALQKEKETLRVNYEKEE,2.76
16,TLFKKIQALQKEKETLFVNYEKEE,2.49
17,TLFKKIQALQKEKETLEVNYEKEE,3.56
18,TLFKKIQALQKEKETLIVNYEKEE,2.85
19,TLFKKIQALQKEKETLWVNYEKEE,2.16
20,TLFKKIQALQKEKETLLVNYEKEE,2.51
21,TLFKKIQALQKEKETLQVNYEKEE,3.04
22,TLFKKIQALQKEKETLYVNYEKEE,2.46
23,TLFKKIQALQKEKETLCVNYEKEE,3.39
24,TLFKKIQALQKEKETLKVNYEKEE,3.41
25,TLFKKIQALQKEKETLAVNYEKQE,2.63
26,TLFKKIQALQKEKETLAVNYEKLE,2.19

row,Variant,protein stability index
1,TLFKKIQALQKEKETLAVNYEKKE,2.68
2,TLFKKIQALQKEKETLAVNYEKME,2.7
3,TLFKKIQALQKEKETLAVNYEKYE,2.76
4,TLFKKIQALQKEKETLAVNYEKRE,2.29
5,TLFKKIQALQKEKETLAVNYEKAE,2.68
6,TLFKKIQALQKEKETLAVNYEKTE,3.02
7,TLFKKIQALQKEKETLAVNYEKNE,3.14
8,TLFKKIQALQKEKETLAVNYEKVE,2.27
9,TLFKKIQALQKEKETLAVNYEKSE,2.89
10,TLFKKIQALQKEKETLAVNYEKWE,1.78
11,TLFKKIQALQKEKETLAVNYEKIE,2.69
12,TLFKKIQALQKEKETLAVNYEKGE,2.58
13,TLFKKIQALQKEKETLAVNYEKHE,2.93
14,TLFKKIQALQKEKETLAVNYEKFE,1.99
15,TLFKKIQALQKEKETLAVNYEKCE,2.34
16,TLFKKIQALQKEKETLAVNYEKPE,2.25
17,TLFKKIQALQKEKETLAVNYEKDE,3.32
18,TLFKKIQALQKEKETWAVNYEKEE,1.86
19,TLFKKIQALQKEKETYAVNYEKEE,3.58
20,TLFKKIQALQKEKETLAVNYEKEH,2.39
21,TLFKKIQALQKEKETLAVNYEKEP,2.53
22,TLFKKIQALQKEKETLAVNYEKEG,2.68
23,TLFKKIQALQKEKETLAVNYEKEI,2.19
24,TLFKKIQALQKEKETLAVNYEKET,2.82
25,TLFKKIQALQKEKETLAVNYEKEM,2.34
26,TLFKKIQALQKEKETLAVNYEKEN,2.7

row,Variant,protein stability index
1,TLFKKIQALQKEKETLAVNYEKEC,3.06
2,TLFKKIQALQKEKETLAVNYEKEQ,2.84
3,TLFKKIQALQKEKETLAVNYEKEW,1.91
4,TLFKKIQALQKEKETLAVNYEKEA,2.79
5,TLFKKIQALQKEKETLAVNYEKES,2.77
6,TLFKKIQALQKEKETLAVNYEKEK,2.41
7,TLFKKIQALQKEKETLAVNYEKEF,2.04
8,TLFKKIQALQKEKETLAVNYEKEL,2.55
9,TLFKKIQALQKEKETLAVNYEKED,3.45
10,TLFKKIQALQKEKETLAVNYEKER,2.1
11,TLFKKIQALQKEKETLAVNYEKEY,2.02
12,TLFKKIQALQKEKETLAVNYEKEV,2.25
13,TLFKKIQALQKEKETLAVYYEKEE,2.33
14,TLFKKIQALQKEKETLAVRYEKEE,2.57
15,TLFKKIQALQKEKETLAVPYEKEE,3.24
16,TLFKKIQALQKEKETLAVSYEKEE,2.99
17,TLFKKIQALQKEKETLAVWYEKEE,2.11
18,TLFKKIQALQKEKETLAVTYEKEE,3.34
19,TLFKKIQALQKEKETLAVMYEKEE,2.65
20,TLFKKIQALQKEKETLAVCYEKEE,3.14
21,TLFKKIQALQKEKETLAVVYEKEE,2.58
22,TLFKKIQALQKEKETLAVGYEKEE,3.25
23,TLFKKIQALQKEKETLAVLYEKEE,2.41
24,TLFKKIQALQKEKETLAVAYEKEE,3.11
25,TLFKKIQALQKEKETLAVEYEKEE,3.64
26,TLFKKIQALQKEKETLAVFYEKEE,2.18

row,Variant,protein stability index
1,TLFKKIQALQKEKETLAVDYEKEE,3.15
2,TLFKKIQALQKEKETLAVQYEKEE,3.08
3,TLFKKIQALQKEKETLAVIYEKEE,2.7
4,TLFKKIQALQKEKETLAVKYEKEE,2.69
5,TLFKKIQALQKEKETLAVHYEKEE,3.08
6,TLFKKIQALQKEKETLAPNYEKEE,3.16
7,TLFKKIQALQKEKETLASNYEKEE,3.31
8,TLFKKIQALQKEKETLAYNYEKEE,2.53
9,TLFKKIQALQKEKETLADNYEKEE,3.43
10,TLFKKIQALQKEKETLAQNYEKEE,3.21
11,TLFKKIQALQKEKETLAMNYEKEE,2.81
12,TLFKKIQALQKEKETLAINYEKEE,3.04
13,TLFKKIQALQKEKETLAFNYEKEE,2.58
14,TLFKKIQALQKEKETLANNYEKEE,3.63
15,TLFKKIQALQKEKETLACNYEKEE,2.95
16,TLFKKIQALQKEKETLAHNYEKEE,3.62
17,TLFKKIQALQKEKETLATNYEKEE,3.02
18,TLFKKIQALQKEKETLAWNYEKEE,2.03
19,TLFKKIQALQKEKETLARNYEKEE,2.66
20,TLFKKIQALQKEKETLALNYEKEE,3.79
21,TLFKKIQALQKEKETLAANYEKEE,2.95
22,TLFKKIQALQKEKETLAENYEKEE,3.2
23,TLFKKIQALQKEKETLAGNYEKEE,3.15
24,TLFKKIQALQKEKETLAKNYEKEE,3.43
